Measured values taken from patent US10597649B2, “Tau protease compositions and methods of use” (Oligomerix, Inc., priority 2011, dated 2020).

B1: TP-210: 210-aa fragment of tau protein, amino acids 131-340 of tau 4R2N plus initiating methionine (SEQ ID NO:1) (protein, listed as Homo sapiens)
chain: MSKDGTGSDDKKAKGADGKTKIATPRGAAPPGQKGQANATRIPAKTPPAPKTPPSSGEPPKSGDRSGYSSPGSPGTPGSRSRTPSLPTPPTREPKKVAVVRTPPKSPSSAKSRLQTAPVPMPDLKNVKSKIGSTENLKHQPGGGKVQIINKKLDLSNVQSKCGSKDNIKHVPGGGSVQIVYKPVDLSKVTSKCGSLGNIHHKPGGGQVEVK
B2: TP-99: 99-amino acid fragment of tau 4R2N, amino acids 241-340, plus initiating methionine (SEQ ID NO:3) (protein)
chain: MRLQTAPVPMPDLKNVKSKIGSTENLKHQPGGGKVQIINKKLDLSNVQSKCGSKDNIKHVPGGGSVQIVYKPVDLSKVTSKCGSLGNIHHKPGGGQVEVK
B3: TP-83: 83 amino acid truncated tau peptide, 4R2N 258-340 (SEQ ID NO:4) (protein, listed as Homo sapiens)
chain: MSKIGSTENLKHQPGGGKVQIINKKLDLSNVQSKCGSKDNIKHVPGGGSVQIVYKPVDLSKVTSKCGSLGNIHHKPGGGQVEVK
B4: TP-81: 81 amino acid truncated tau peptide, 4R2N 260-340 (SEQ ID NO:5) (protein, listed as Homo sapiens)
chain: MIGSTENLKHQPGGGKVQIINKKLDLSNVQSKCGSKDNIKHVPGGGSVQIVYKPVDLSKVTSKCGSLGNIHHKPGGGQVEVK

Assays:
[1] = Tau protease enzymatic activity of truncated tau peptides (general statement); format: biochemical
[2] = system: Tau 4R2N (amino acids 335-353) peptide substrate; assay: Peptide digest HPLC assay of tau protease activity; format: biochemical, human; settings: oligomerized truncated tau, 37° C., overnight (TP-210) or 44 hr (TP-99)
From the text: N-terminal sequencing of fragments using mass spectrometry identified autoproteolytic cut sites. In particular, cutting at the Lys340-Ser341 (340KS341) cut site occurred readily. Therefore, a 19-amino acid peptide corresponding to amino acids 335G to 353L of tau protein was synthesized that contained the KS cut site (340KS341). The reaction was monitored by reverse-phase high-pressure liquid chromatography (HPLC). […] An asterisk marks a non-specific contaminant that was used as a marker. […] 10 μg of tau peptide 335-353 ([…]) (SEQ ID NO:19) was custom synthesized by Genscript (Piscataway, N.J., USA) and 1 mg was dissolved in 1 mL of buffer (25 mM Tris-HCl pH 7.4). […] 32Karat™ LC-CE System, Beckman Coulter, Inc., (Indianapolis, Ind.)] using a linear gradient of acetonitrile in 0.1% TFA 0-60% acetonitrile on an analytical C18 column (12.5 cm×2.1 mm, 5 μm, (Supelco, Bellefonte, Pa., USA). 30 μg of peptide was incubated without tau protease as a negative control and analyzed with the same method;
Cleavage of the peptide substrate for tau protease, Tau 4R2N (amino acids 335-353) […] (SEQ ID NO.19), was used to monitor activity using reverse-phase HPLC. […] The large peak in the lower trace indicated intact peptide was greatly diminished in the upper trace and replaced with two smaller peaks F1 and F2 that represent fragments generated by TP-210. […]

[3] = system: tau FRET peptide; assay: FRET assay of tau protease activity; format: biochemical; settings: 10, 25 or 50 μg oligomerized protein, 2.5 μg FRET peptide, 17 hrs at 37° C.
From the text: The FRET assay peptide substrate is composed of nine amino acids surrounding the autoproteolytic cut site after Lys 340 in tau 4R2N with the fluorescent molecule methylcoumarin (MCA) at the amino terminus and the fluorescence quenching molecule dinitrophenol (DNP) at the C-terminus using an additional Lys at the C-terminus to conjugate it to the peptide: MCA-[…]-{Lys(DNP} (SEQ ID NO:18). The concept is that when tau protease cuts the peptide the quench is dissociated from the fluor such that there is a detectable increase in the fluorescence signal in the assay. This assay can be used to monitor tau protease activity to screen small molecule compounds, peptides or antibodies that modulate tau protease activity. This assay can also be used to characterize enzyme kinetics and optimize the buffer conditions for tau protease. […]
A FRET assay was conducted to determine if the Tau 4R2N 260-340 construct has protease activity using the tau FRET peptide described in FIG. 22 and FIG. 23. […] To determine the background values for the wells of the 96-well plate 95 microliter of buffer was added to the wells of a black 96-well Microfluor I plate (ThermoFisher Scientific) and an EnVision plate reader was used to determine signal (as described in FIG. 23). 5 μL of each sample was mixed with the buffer in the wells and the signal was determined. […]

Row | Molecule | tau protease enzymatic activity [1] | protease activity on tau peptide 335-353 (HPLC) [2] | cutting of tau FRET peptide [3]
1 | B1 | retain tau protease enzymatic activity | retained proteolytic activity | –
2 | B2 | retain tau protease enzymatic activity | showed protease activity | –
3 | B3 | retain tau protease enzymatic activity | – | –
4 | B4 | retain tau protease enzymatic activity | – | cuts tau FRET peptide
